Values of other authors, collected in publication PMC7692841.

Tests used:
[1] = target: BRCA1-A complex (Homo sapiens) (UniProt Q6UWZ7)
[2] = target: ABRAXAS phosphopeptide (Homo sapiens) (UniProt Q6UWZ7); experiment: ITC
[3] = target: ATRIP phosphopeptide (Homo sapiens) (UniProt Q8WXE1); experiment: ITC
[4] = target: BACH1 phosphopeptide (Homo sapiens) (UniProt Q9BX63); experiment: ITC
Chain of BACH1 phosphopeptide (Homo sapiens) (Q9BX63 whole entry): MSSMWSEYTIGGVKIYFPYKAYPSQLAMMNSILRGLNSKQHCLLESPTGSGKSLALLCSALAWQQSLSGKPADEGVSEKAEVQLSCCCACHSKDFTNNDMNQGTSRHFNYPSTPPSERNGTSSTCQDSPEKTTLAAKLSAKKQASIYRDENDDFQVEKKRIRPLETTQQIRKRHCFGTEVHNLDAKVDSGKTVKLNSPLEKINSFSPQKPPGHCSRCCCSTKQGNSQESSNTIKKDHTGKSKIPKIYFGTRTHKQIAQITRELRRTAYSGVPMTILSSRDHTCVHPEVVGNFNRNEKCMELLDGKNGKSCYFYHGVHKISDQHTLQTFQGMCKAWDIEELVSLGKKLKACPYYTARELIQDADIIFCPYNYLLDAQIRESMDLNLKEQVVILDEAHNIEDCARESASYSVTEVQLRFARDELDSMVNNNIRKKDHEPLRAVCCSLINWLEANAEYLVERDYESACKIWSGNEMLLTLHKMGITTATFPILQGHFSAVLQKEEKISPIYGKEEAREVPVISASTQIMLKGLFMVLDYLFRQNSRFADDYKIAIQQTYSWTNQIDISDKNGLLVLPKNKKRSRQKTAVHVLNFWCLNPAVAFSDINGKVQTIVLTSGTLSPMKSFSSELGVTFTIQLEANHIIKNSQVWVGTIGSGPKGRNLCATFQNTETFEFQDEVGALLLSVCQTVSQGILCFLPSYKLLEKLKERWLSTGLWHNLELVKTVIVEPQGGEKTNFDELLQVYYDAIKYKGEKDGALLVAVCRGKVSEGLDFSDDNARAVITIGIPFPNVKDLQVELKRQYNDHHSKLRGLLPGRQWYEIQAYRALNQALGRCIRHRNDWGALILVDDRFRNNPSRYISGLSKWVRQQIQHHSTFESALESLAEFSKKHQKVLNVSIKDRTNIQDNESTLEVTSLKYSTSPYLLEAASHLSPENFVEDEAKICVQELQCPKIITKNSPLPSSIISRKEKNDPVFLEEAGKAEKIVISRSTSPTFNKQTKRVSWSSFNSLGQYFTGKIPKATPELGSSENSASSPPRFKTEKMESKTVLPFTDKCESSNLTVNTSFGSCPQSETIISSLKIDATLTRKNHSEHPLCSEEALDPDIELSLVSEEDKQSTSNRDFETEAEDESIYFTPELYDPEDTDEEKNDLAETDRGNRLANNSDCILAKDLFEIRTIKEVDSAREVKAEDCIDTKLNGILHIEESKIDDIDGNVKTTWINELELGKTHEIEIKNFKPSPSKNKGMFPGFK

Chain of BRCA1 BRCT (P38398 1646-1859): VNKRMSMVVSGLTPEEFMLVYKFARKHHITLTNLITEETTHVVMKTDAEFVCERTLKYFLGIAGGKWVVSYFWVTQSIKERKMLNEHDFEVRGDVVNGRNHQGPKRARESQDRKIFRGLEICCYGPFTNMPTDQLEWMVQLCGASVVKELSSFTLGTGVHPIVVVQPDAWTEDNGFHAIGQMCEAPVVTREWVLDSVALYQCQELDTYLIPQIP
Chain of ABRAXAS phosphopeptide (Homo sapiens) (Q6UWZ7 whole entry): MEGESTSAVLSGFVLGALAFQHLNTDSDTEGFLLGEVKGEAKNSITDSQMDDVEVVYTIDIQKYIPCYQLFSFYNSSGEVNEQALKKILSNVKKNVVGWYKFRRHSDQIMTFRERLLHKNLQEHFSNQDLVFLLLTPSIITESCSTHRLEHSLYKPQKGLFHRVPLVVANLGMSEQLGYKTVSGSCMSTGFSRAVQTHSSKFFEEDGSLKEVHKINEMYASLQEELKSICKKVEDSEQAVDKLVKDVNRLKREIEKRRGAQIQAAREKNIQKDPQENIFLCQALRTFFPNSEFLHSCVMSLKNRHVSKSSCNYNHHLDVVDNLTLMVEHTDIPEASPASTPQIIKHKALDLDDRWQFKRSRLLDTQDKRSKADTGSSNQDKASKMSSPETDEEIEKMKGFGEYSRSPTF
Chain of ATRIP phosphopeptide (Homo sapiens) (Q8WXE1 whole entry): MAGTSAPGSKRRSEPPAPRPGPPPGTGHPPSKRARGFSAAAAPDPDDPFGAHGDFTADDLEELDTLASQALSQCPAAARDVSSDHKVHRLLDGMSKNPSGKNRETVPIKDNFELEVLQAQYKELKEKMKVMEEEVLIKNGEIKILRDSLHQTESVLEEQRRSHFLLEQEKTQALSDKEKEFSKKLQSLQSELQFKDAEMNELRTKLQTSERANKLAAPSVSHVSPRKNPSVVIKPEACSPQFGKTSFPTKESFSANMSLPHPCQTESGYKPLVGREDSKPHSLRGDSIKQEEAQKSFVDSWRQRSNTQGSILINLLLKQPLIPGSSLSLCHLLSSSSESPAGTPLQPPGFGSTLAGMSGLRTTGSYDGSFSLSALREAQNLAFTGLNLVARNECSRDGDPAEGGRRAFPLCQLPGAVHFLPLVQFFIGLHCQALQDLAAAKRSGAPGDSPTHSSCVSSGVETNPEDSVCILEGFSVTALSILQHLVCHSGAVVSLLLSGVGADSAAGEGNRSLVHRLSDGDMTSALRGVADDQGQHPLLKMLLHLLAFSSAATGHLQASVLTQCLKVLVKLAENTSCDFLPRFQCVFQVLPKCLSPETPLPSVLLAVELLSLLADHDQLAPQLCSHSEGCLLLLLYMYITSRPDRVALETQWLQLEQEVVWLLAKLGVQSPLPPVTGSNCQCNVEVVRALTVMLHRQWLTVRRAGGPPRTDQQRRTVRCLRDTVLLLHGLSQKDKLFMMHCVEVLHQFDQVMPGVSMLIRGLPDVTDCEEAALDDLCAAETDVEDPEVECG

Substance: BRCA1 BRCT (from UniProt P38398)
- Kd [1]: 80 nM
- Kd [2]: 1200 nM
- Kd [3]: 28.2 µM
- Kd [4]: 700 nM
